Experimental data published in the DeepSol protein solubility set.

Test: soluble on expression in E. coli; label from the status in PepcDB or PDB records

Row | Sequence | soluble on expression in E. coli
1 | MKRQWALEDFEIGRPLGKGKFGNVYLAREKQSKFILALKVLFKAQLEKAGVEHQLRREVEIQSHLRHPNILRLYGYFHDATRVYLILEYAPLGTVYRELQKLSKFDEQRTATYITELANALSYCHSKRVIHRDIKPENLLLGSAGELKIADFGWSVHAPSSRRTDLCGTLDYLPPEMIEGRMHDEKVDLWSLGVLCYEFLVGKPPFEANTYQETYKRISRVEFTFPDFVTEGARDLISRLLKHNPSQRPMLREVLEHPWITANSSKPSNCQNKESAAAALEHHHHHH | soluble
2 | MVKVVGVRFKKAGKIYYFDPGDLEINLHENVIVETARGIEFGQVVVPNTEVSEEEIVAPLKKVIRVATEEDKAHHEDNIRREKEAFDICLQKIANHKLEMKLVGVEYTFDNNKILFYFTADGRVDFRELVKDLASVFRTRIELRQIGVRDEAKMMGGLGVCGRVLCCNSFLGEFQPVSIKMAKEQGLSLNPAKISGACGRLMCCLKYEQEAYEEIISRVPKEGAIVETPDGQGVVMSVSLLKELVKVKLDRENETDLKVYKASEVKVIKDVTREETEEEEIDLDELKQLED | soluble
3 | RPNDIYVNMKTDFKAQLARCQKLLDGGARGQNACSEIYIHGLGLAINRAINIALQLQAGSFGSLQVAANTSTVELVDELEPETDTREPLTRIRNNSAIHIRVFRVTPK | not soluble
4 | MWRSCLRLRDGGRRLLNRPAGGPSASMSPGPTIPSPARAYAPPTERKRFYQNVSITQGEGGFEINLDHRKLKTPQAKLFTVPSEALAIAVATEWDSQQDTIKYYTMHLTTLCNTSLDNPTQRNKDQLIRAAVKFLDTDTICYRVEEPETLVELQRNEWDPIIEWAEKRYGVEISSSTSIMGPSIPAKTREVLVSHLASYNTWALQGIEFVAAQLKSMVLTLGLIDLRLTVEQAVLLSRLEEEYQIQKWGNIEWAHDYELQELRARTAAGTLFIHLCSESTTVKHKLLKE | not soluble
5 | MSLSFKDAVRKRPGMYFGDIDHNAVNHVIYELVANVVDLFLAGRATTLKVDVSECEIIVIDDGPGFPFPVEDSAHNLVERYLTHHHDKPTADDHAPHIHVLGGGLGLAAVNAVSEKLTIESSNGAWRWRQVFGKGDVLAPLESFRYDGPSGSSIKFTLDPSVFHNRLPDFFQLRKAMFELAHLYSGLIVEFDGERYVSKQGLMELAYLMWSGEGHHHHHH | not soluble
6 | MGSDKIHHHHHHMQQLFVQLLEERYFNRLPEALVLKFATESADFVRFWLVHCMRSMVSERELAIALFFSAEWELEELASLKSFWGSYVAMEEAQEVKATFCHFVPWLKTISPHHEDAICVFSALWFFEHRPTSVGKQLQSATLSHSQLPVSLLDDIKLFSLPHLRPITVYGHQGKGSVESGIRNNMHYPTPIPNDNLAMACVERVIAKFAGIKLAFAEPIVVLRYEPGQFYQWHYDAIHAYTAEIQAELERFGQRSRTAILYLNDDFEGGETEFKAPYIQVKPETAAILVFDNTDQTGKPIPSSLHRGCEVTAGKKWVCTQWFRDKPFWLRAGLLA | not soluble
7 | MAHHHHHHSLIISSLTNPNFKVGLPKVIAEVCDYLNTLDLNALENGRHDINDQIYMNVMEPETAEPSSKKAELHHEYLDVQVLIRGTENIEVGATYPNLSKYEDYNEADDYQLCADIDDKFTVTMKPKMFAVFYPYEPHKPCCVVNGKTEKIKKLVVKVPVKLIEG | not soluble
8 | MGSDKIHHHHHHSDLTSAQVAERLLVSQPKISLLENGHRAISPRDVRDLCELYGVTDRQVIDSLMRMARESGQQGWWNTYGNIPNSVYIGLETDASSIHTYEPMVIPDLLQTPAYAHAVIETTVPPIPAQQADARLKVRLRRQHRIYDPARPLRLWVVLDEPALHRVVGRPDIMREQLEHLNALSAEPHITVQVLPYTAGAHPGRQGQFSVLRFADSPEAGMVYLERFTSDLYLKKPSEVQQYSMMYDHLQARALSPEGTRDFVTDVTKSHIDVASRP | not soluble
9 | MKEFYLTVEQIGDSIFERYIDSNGRERTREVEYKPSLFAHCPESQATKYFDIYGKPCTRKLFANMRDASQWIKRMEDIGLEALGMDDFKLAYLSDTYNYEIKYDHTKIRVANFDIEVTSPDGFPEPSQAKHPIDAITHYDSIDDRFYVFDLLNSPYGNVEEWSIEIAAKLQEQGGDEVPSEIIDKIIYMPFDNEKELLMEYLNFWQQKTPVILTGWNVESFDIPYVYNRIKNIFGESTAKRLSPHRKTRVKVIENMYGSREIITLFGISVLDYIDLYKKFSFTNQPSYSLDYISEFELNVGKLKYDGPISKLRESNHQRYISYNIIDVYRVLQIDAKRQFINLSLDMGYYAKIQIQSVFSPIKTWDAIIFNSLKEQNKVIPQGRSHPVQPYPGAFVKEPIPNRYKYVMSFDLTSLYPSIIRQVNISPETIAGTFKVAPLHDYINAVAERPSDVYSCSPNGMMYYKDRDGVVPTEITKVFNQRKEHKGYMLAAQRNGEIIKEALHNPNLSVDEPLDVDYRFDFSDEIKEKIKKLSAKSLNEMLFRAQRTEVAGMTAQINRKALINGLAGALGNVWFRYYDLRNATAITTFGQMALQWIERKVNEYLNEVCGTEGEAFVLYGDTDSIYVSADKIIDKVGESKFRDTNHWVDFLDKFARERMEPAIDRGFREMCEYMNNKQHLMFMDREAIAGPPLGSKGIGGFWTGKKRYALNVWDMEGTRYAEPKLKIMGLETQKSSTPKAVQKALKECIRRMLQEGEESLQEYFKEFEKEFRQLNYISIASVSSANNIAKYDVGGFPGPKCPFHIRGILTYNRAIKGNIDAPQVVEGEKVYVLPLREGNPFGDKCIAWPSGTEITDLIKDDVLHWMDYTVLLEKTFIKPLEGFTSAAKLDYEKKASLFDMFDFHHHHHH | soluble
10 | MAHHHHHHMHNVYNIFRQGQKRTYMTTALDRKIREVPYLSRYVILEKLKKKPRYMSECVGTPRRAYDYNTFDKIRYKPTFNPYVHLNKDKKYRLDNWKSRDHENFDPLKCYVRGSRKSYDIPYAILPTKDELGMFHPPILSGRYKADIEKQYYMHDLPWVWHKNFYTGTSHFCDNMVIGKKKWYRKEQQNEKMKESMKKINNLVLEYREECKNKKRYNFLEKVVNTLGDEIAHKYIRKIKNIYL | not soluble
11 | MNNIRLLNQNDLDSYIELMKFGHHNYEWDRYYLENVSIDRLKTILSNHTDYWNIFGAFEDDELVATCTLKQMNYVGKCHKAILENNFVKNNDEIVNRELINHIIQYAKEQNIETLMIAIASNNISAKVFFSSIGFENLAFEKNASKIGNEYFDENWLIYSTTE | not soluble
12 | MSTSAGSSGAAASEPTTAKSLTYSETMNDLRKGSLFGRQKESLATTDGGPQPSSLDDKSQQFKNPIESDKPGPSTEPGRSAKIEQEAPAPTLKKSETPPAFGLSGVVKKVPSVYFPIFNKLGVKIPGFLPSLRETKINAPHIVYDVRRLRLLQKRQRPIKQLWLRLQFQLRFQMQLLKAQTKSSRVPDNASAVMWLHYIEVIEDHCTADC | not soluble
13 | MGSDKIHHHHHHMITVSIVTYKTNLGELSKCLQSLISSLVSQIYIVDNSNERYIADFCQQYPNVIYIGSENVGYGAGHNQALRQVLNSGGKYHLILNSDVYFEPSVLEFLAAYMDAHADVAQVQPNVVYPDGEQQYTCRLLPTPANLIFRRFLPKRMVEKMNIRYQLKFDDHKKEMNVPYHQGSFMFFRLECFKKVGLFDERFFMYPEDIDITRRMHKWYRTMFVPSVTIVHAHRAASYKSKKMLKIHMVNMIKYFNKWGWIVDKERSAWNRKLLEELGYKK | not soluble
14 | MEMAYDFAETKDTAIIFIYRPPVGDIQISPVLEGPRRLRLWNDITISLYKDVYPDIRLIESRSRVEVHLRKVEMVRWGGINGRPADKPQDDGKETMVEDSGDEENPSVMDLFSKIYQRSGDDVRRAMEKSFYESEGTVLSTDWDQVKSKKITRED | not soluble
15 | MKLMQIRKPLLKSSLLDQNLTEEEVNMKFVQDLLNWVDEMQVQLDRTEWGSDLPSVESHLENHKNVHRAIEEFESSLKEAKISEIQMTAPLKLSYTDKLHRLESQYAKLLNTSRNQERHLDTLHNFVTRATNELIWLNEKEESEVAYDWSERNSSVARKKSYHAELMRELEQKEESIKAVQEIAEQLLLENHPARLTIEAYRAAMQTQWSWILQLCQCVEQHIQE | soluble
16 | MAELISKEGNKVEFKVSVPAAEVNRAYDQVWAGLARDVRVPGFRPGKAPRKVIENRVGKGYVESQVRDRLLETHYSQGLRELGLNLVDATVDPQDVQSGQAFEFTVKGETYP | soluble
17 | MPRVDHGSPQAGPPAPCVGILLAGGQGRRFAAASGGQDKLLARLADGTAVAVRAAAALREATDAVVAVVRPESAVLAALLRGQGCHVLESEQAREGMGASLAAAARFLLAGQVPDMPERADVCLVALADMPWVRRDTLSAVRAAACADGITVPVHQGRRGHPVAFGRSLWGELAALRGDVGARELLRRHRVAAVEVDDPGVAADVDTPGDLAGDRALEHHHHHH | not soluble
18 | AHHHHHHGSPIRKVMKANEAAAWAAKLAKPKVIAAFPITPSTLIPEKISEFVANGELDAEFIKVESEHSAISACVGAAAAGVRTFTATASQGLALMHEILFIAAGMRLPIVMAIGNRALSAPINIWNDWQDTISQRDTGWMQFYAENNQEALDLILIAYKVAEDERVLLPAMVGFDAFILTHTVEPVEIPDQEVVDEFLGEYEPKHAYIDPARPITQGSLAFPAHYMESRYTVWEAMERAKKVIDEAFAEFEKKFGRKYQKIEEYKTEDADIIFVTMGSLAGTLKEWIDKKREEGYKVGAAKITVYRPFPVEEIRELAKKAKVLAFLEKNITIGLYGAVFTDASAALINESEKPLMVDFIVGLGGRDVTFNQLDEALEIAEKALKEGKVENPINWIGLRWELVK | soluble
19 | MPKMIMVNKKASESQVMELEKRNYNNPVVLCGFAGSTPTGVLAASYIVETLGMHQVAHLISQHIPPVAVFVGGKLRHPFRIYANNSNTVLVAMCEVPISSAHIYEISNTLMNWIDQVGASEIVIMEGSPANGIPEERPVFAVAEKPKLDKFKKAGIQPADSAIIAGMGGGILNECLVRKITGLSFITPTSVDIPDPGAVLSIIEAINKAYNLKIKTDLLEEQVKALDEQIKKIEEQYKELQEKQKEPQSMYG | soluble
20 | MRDNPLVSILIPTFNRPMLLEKSLRSAVNQTYKNIEIVICDDSTNYDSKTVVESYMKRYKNIRYYFNNGPLGNFGLNNVKKCYELSKGEYINYLNDDDMFHKSKIMRMIRYFQNYKKITLVTSHRSVIDKNDNILPDINATKRIRYLNRPVSGRIIAKLMFNLGNFIGEPTTVLFKKSDVKNFGSLNGKQYYSLIDAATWFELLSKGYCVYIADTLSYFRIHEGQNTNRPEVSGRFLLEWKDLNDYGYRKKIIDSEFYKRFLLSFKKEYEKPKLEHHHHHH | not soluble
21 | MAAKIEDMETRIEALMDVMRVPPGKKINLKKDYDPGFTGKWMTKAEAKETLARGIQMLAEMQDKLWAQNQYAVLMNLQALDAAGKDGTIKHVMSGVNPQGVDVHSFKGPSSEEMDHDYLWRNFKALPSRGRIGIFNRSYYEEVLVVRVHPEFLASQQLPPKLKDKRIWRRRFEEINNFEKYLVDNGIVVIKFFLYVSKEAQKERFLRRTQLPEKNWKFSAADIKERAHWDDYIAAYEDMFNHTSTEWAPWYIVPADHKWFTRLAVAAVLYYTMEKLNLAYPTVSEEQKQALIAAKEELEREDSGPKDKAVVKAEEEEDADPQDPASNGEVPKDESKKESKKKGSKNR | not soluble
22 | MKIAAIYTQSVGPLPDGEIRFENDWSGEIESNVLITGPNGCGKSTLLRAISLLWRAFGHWLGTGTRLNIKDESYTWFYRWDASCAMILDSFSPKSEDQIGLFLGSEAFLVQLKEKYPQVYWLGETVSRTKGTTPETTVFTSSEHFFLPYKNWWSHWSSQYQRLVLKGPSVDMPNLVYLDAEARRWVRPQKDIGSLSPDDSTQAWLATYEVNDNWKGQLESSLFNMKATMPGEYPEMIATLNQFFSGKRIEAEIHPGQRQRVLLDSGNDHSLDALSSGEHQVLIMLFTVQRWLQPGGVVLIDEPDLHLHPSLISPLLASIENIVARKNGQLVMTSHATDIWQRYDNMGLRIDLTDGKDAENGQR | not soluble
